Measurements taken from paper PMC5161705.

What was measured:
[1] = biological target: biotin-labeled MBP (E. coli) [MBP: P0AEX9]; assay: BLI
[2] = biological target: MBP^V8G/Y283D (E. coli) [MBP: P0AEX9]; assay: ITC

SecB, sequence (P0AG86 whole entry): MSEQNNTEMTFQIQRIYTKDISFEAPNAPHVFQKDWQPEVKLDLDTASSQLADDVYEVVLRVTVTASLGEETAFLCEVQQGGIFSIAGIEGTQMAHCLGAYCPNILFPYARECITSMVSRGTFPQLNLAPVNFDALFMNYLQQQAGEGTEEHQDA
Trigger Factor (TF), sequence (P0A850 whole entry): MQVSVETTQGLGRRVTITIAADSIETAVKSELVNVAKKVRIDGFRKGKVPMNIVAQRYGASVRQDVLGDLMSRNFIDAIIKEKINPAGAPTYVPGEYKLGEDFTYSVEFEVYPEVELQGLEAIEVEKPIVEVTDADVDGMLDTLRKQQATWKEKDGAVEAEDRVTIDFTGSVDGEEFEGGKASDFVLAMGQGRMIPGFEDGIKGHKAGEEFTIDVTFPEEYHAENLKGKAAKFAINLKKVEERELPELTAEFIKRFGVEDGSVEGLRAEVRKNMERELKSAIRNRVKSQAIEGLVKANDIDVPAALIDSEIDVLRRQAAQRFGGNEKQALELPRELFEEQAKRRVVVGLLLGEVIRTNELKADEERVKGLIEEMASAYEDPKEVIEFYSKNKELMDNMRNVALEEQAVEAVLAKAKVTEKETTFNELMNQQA

Substance	koff [1] [s⁻¹]	Kd [2] [mM]
SecB (from UniProt P0AG86 1-155) (natural protein)	0.01	50
Trigger Factor (TF) (from UniProt P0A850 1-432) (natural protein)	0.05	
